Data: publication PMC10397247
One block for each binder: values may come before it.

Columns and labels:
Assay in all cases: two-hybrid library CCNG1;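 further: natural log of median RNA to DNA barcode read ratio; higher means stronger binding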
[1] = target: T1, P7bH1
T1 chain: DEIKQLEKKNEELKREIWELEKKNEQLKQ

[2] = target: T2, P4bH1
T2 chain: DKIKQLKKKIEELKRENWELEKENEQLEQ

[3] = target: T3, P8bH1
T3 chain: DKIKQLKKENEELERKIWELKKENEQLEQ

[4] = target: T4, P3bH1
T4 chain: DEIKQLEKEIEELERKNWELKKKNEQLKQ

[5] = target: T5, P5bH1
T5 chain: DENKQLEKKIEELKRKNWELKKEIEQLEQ

[6] = target: T6, P9bH1
T6 chain: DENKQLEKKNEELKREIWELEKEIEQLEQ

[7] = target: T7, P6bH1
T7 chain: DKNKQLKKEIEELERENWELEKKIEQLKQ

[8] = target: T8, 4H491-bA
T8 chain: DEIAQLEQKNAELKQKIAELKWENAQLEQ

[9] = target: T9, 4H342-bA
T9 chain: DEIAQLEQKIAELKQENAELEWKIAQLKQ

[10] = target: T10, 4H48-bA
T10 chain: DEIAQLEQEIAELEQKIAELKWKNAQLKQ

[11] = target: T11, 4H918-bN
T11 chain: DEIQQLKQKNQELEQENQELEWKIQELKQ

[12] = target: T12, 4H3632-bA
T12 chain: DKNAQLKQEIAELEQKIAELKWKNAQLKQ

[13] = target: T13, O3
T13 chain: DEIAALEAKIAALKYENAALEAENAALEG

[14] = target: T14, 4H496-bA
T14 chain: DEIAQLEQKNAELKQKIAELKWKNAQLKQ

interaction score [1]: -0.271
interaction score [2]: 1.13
interaction score [3]: 0.173
interaction score [4]: -0.241
interaction score [5]: 1.1
interaction score [6]: -0.408
interaction score [7]: 0.419
B1: P3bH1 (peptide)
chain: DEIKQLEKEIEELERKNWELKKKNEQLKQ

interaction score [8]: 1.5
interaction score [9]: 1.64
interaction score [10]: 0.0458
interaction score [11]: -0.0267
interaction score [12]: 0.725
interaction score [13]: -1.6
interaction score [14]: 2.13
B2: 4H342-bA (peptide)
chain: DEIAQLEQKIAELKQENAELEWKIAQLKQ
